Results published in US20220363769A1 (SORRISO PHARMACEUTICALS, published 2022).
Changes are numbered by the printed parent chain. Names and notes keep the numbering of the source. Where two headings read alike, the source gives them in different places.

T1: recombinant human IL-7Rα-His6-Fc (human, UniProt P16871 21-239)
T1 construct: also called hIL-7R; not shown: His6 tag; Fc (captured by anti-human IgG Fc)
T1 chain: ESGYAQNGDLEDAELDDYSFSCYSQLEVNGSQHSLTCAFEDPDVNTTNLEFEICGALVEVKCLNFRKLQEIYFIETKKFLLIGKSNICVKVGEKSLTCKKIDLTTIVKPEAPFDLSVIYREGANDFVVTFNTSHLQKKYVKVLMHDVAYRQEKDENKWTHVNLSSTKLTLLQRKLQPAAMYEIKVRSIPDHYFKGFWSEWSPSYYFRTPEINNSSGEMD

B1: V7R-2E9 (VHH)
VHH: EVQLVESGGGLVQAGGSLRLSCESSISTFSSDAMGWFRQAPGKEREFLAAIGWSGAVTHYSDSVQGRFTISRDNAKNTVYLQMNSLKSEDTGRYYCAEDYDTDVWQYWGQGTQVTVSS
notes: llama ICVD, primary clone, expressed in E. coli TG1; parent of the ID-A series; not shown: C-terminal FLAG and 6xHis tags from vector pMEK222
B2: ID-A62U (VHH)
VHH: B1 VHH with E1D, R45L, Q65K, K87R, S88A
notes: V7R-2E9 with E1D, R45L, Q65K, K87R, S88A; produced in S. cerevisiae
B3: human IL-7Rα (receptor)
chain: T1 chain
notes: native receptor on human lymphocytes, monocytes and UC biopsy tissue in the cell assays; also called CD127
B4: cynomolgus monkey IL-7Rα (receptor)
chain: T1 chain with N64S, E93G, T159M, K174N, A178E, S215P
notes: also called cynomolgus IL-7Rα
B5: ID-A59U (VHH)
VHH: B1 VHH with E1D, Q65K, K87R, S88A
notes: V7R-2E9 with E1D, Q65K, K87R, S88A; S. cerevisiae-expressed equivalent of ID-A40U

Legend:
human IL-7Rα [1] = target: B3; assay: cell-based or functional assay
human IL-7Rα [2] = target: B3; assay: cell-based or functional assay
[3] = target: T1, recombinant human IL-7Rα-His6-Fc; assay: IL-7/IL-7Rα-His6-Fc ELISA; inhibition of IL-7 binding to IL-7R
[4] = target: T1, recombinant human IL-7Rα-His6-Fc; assay: IL-7/IL-7R neutralising ELISA; inhibition of IL-7 binding to IL-7R
Procedure: (§1) A 7-point dilution series of the clones was prepared in 1% BSA (at 2× the assay concentration) starting at 300 nM and using a 3.2 dilution factor. […] Block buffer alone was also added to each plate as blank. […] TMB reaction was stopped after 30 minutes.
EC₅₀ values were generated in Graphpad prism using the ELISA signal blank corrected A450 data and ‘log(inhibitor) vs. response—Variable slope (four parameters)’ to fit curves and generate EC₅₀.

[5] = target: T1, recombinant human IL-7Rα-His6-Fc; assay: as above
Procedure: as §1

[6] = target: T1, recombinant human IL-7Rα-His6-Fc; assay: IL-7/IL-7R neutralisation ELISA; inhibition of IL-7 binding to IL-7R
Procedure: A 7-point dilution series of the clones was prepared in 1% BSA (at 2× the assay concentration) starting at 300 nM and using a 3.2 dilution factor. […] Block buffer alone was also added to each plate as blank. […] TMB reaction was stopped after 30 minutes. […]

[7] = target: T1, recombinant human IL-7Rα-His6-Fc; assay: as above
[8] = target: T1, recombinant human IL-7Rα-His6-Fc; assay: TSLP/TSLPR/IL-7R ELISA; inhibition of L-TSLP/TSLP-R complex binding to plate-coated IL-7Rα-His6-Fc
Procedure: (§2) 96-well plates were coated with 0.25 μg/mL recombinant human IL-7Rα-His₆-Fc+ 5 μg/mL BSA and then blocked. […] Then the mixtures were incubated for 30 minutes to allow binding before adding to the IL-7Rα coated plates.

[9] = target: T1, recombinant human IL-7Rα-His6-Fc; assay: IL-7/IL-7R neutralisation ELISA; inhibition of IL-7 binding to IL-7R
[10] = target: T1, recombinant human IL-7Rα-His6-Fc; assay: TSLP/TSLPR/IL-7R ELISA; inhibition of L-TSLP/TSLP-R complex binding to plate-coated IL-7Rα-His6-Fc
Procedure: as §2
A subtraction was performed on the data set before graphing which normalised to the highest concentration of antibody tested (to overcome a high level of background on the plate).

cynomolgus monkey IL-7Rα [11] = target: B4; assay: competition ELISA: A62U premixed with serially diluted soluble IL-7R, then added to plate-coated human IL-7Rα-His6-Fc; bound ICVD detected [right panel (cross-reactivity A62U]
Procedure: (§3) 96-well plates were coated with 0.5 μg/mL recombinant human IL-7Rα His₆-Fc +5 μg/mL BSA and then blocked. 0.5 nM of ICVD was mixed 1:1 with the test compounds of choice serially diluted in 1% BSA, then incubated for 30 minutes to allow binding before adding to the IL-7Rα coated plates. Following 2 hours incubation, bound ICVD was detected with 50 uL/well 1/20000 anti-FLAG-HRP Goat antibody (GeneTex, GTX21238), and the level of neutralisation of ICVD-IL-7Rα binding by the test compounds was determined.

ID-A40U [12] = target: T2, ID-A40U; assay: competition ELISA: ID-A40U premixed with serially diluted soluble IL-7R, then added to plate-coated human IL-7Rα-His6-Fc; bound ICVD detected
T2 construct: V7R-2E9 with Q65K, K87R, S88A; produced in E. coli; also called A40U-F/H; not shown: Flag-His6 tag
Procedure: as §3

ID-A40U [13] = target: T2, ID-A40U; assay: competition ELISA: ID-A40U premixed with serially diluted soluble receptor, then added to plate-coated human IL-7Rα; bound ICVD detected [left panel]
Procedure: as §3

ID-A40U [14] = target: T2, ID-A40U; assay: competition ELISA: ID-A40U premixed with serially diluted soluble receptor, then added to plate-coated human IL-7Rα; bound ICVD detected [right panel]
Procedure: as §3

ID-A59U = target: B5; assay: competition ELISA: A59U premixed with serially diluted soluble IL-7R, then added to plate-coated human IL-7Rα-His6-Fc; bound ICVD detected [left panel (cross-reactivity A59U]
Procedure: as §3

ID-A62U = target: B2; assay: competition ELISA: A62U premixed with serially diluted soluble IL-7R, then added to plate-coated human IL-7Rα-His6-Fc; bound ICVD detected [right panel (cross-reactivity A62U]
Procedure: as §3

cynomolgus monkey IL-7Rα [15] = target: B4; assay: competition ELISA: A59U premixed with serially diluted soluble IL-7R, then added to plate-coated human IL-7Rα-His6-Fc; bound ICVD detected [left panel (cross-reactivity A59U]
Procedure: as §3

B1 was tested, and the “IL-7 induced pSTAT5 in hPBMCs EC50” value (human IL-7Rα [1]) was 2.86 nM, the “IL-7 induced pSTAT5 in hPBMCs EC50” value (human IL-7Rα [2]) was 2.86 nM and the EC50 [3] was 600 pM. It also gave an EC50 [4] of 368 pM, an EC50 [5] of 818 pM and an EC50 [6] of 370 to 670 pM. For the same binder, the EC50 [7] was 818 pM and the EC50 [8] was 320 pM.

In the case of B2, the EC50 [9] is reported as 400 pM, the EC50 [10] is reported as 740 pM and the binding result (cynomolgus monkey IL-7Rα [11]) is reported as “binds”.

B3 was tested, and the “IC50 (read off the curve)” value (ID-A40U [12]) was roughly 0.03 µg/mL, the “IC50 (read off the curve)” value (ID-A40U [13]) was roughly 0.02 µg/mL and the “IC50 (read off the curve)” value (ID-A40U [14]) was roughly 0.02 µg/mL.

With B4 the “IC50 (read off the curve)” value (ID-A40U [12]) was roughly 0.01 µg/mL, the “IC50 (read off the curve)” value (ID-A59U) was roughly 0.03 µg/mL and the “IC50 (read off the curve)” value (ID-A62U) was roughly 0.02 µg/mL.

B5: binds (cynomolgus monkey IL-7Rα [15]).
